B1: Varicella-zoster virus glycoprotein E (gE), recombinant protein, tag not told for these experiments (natural protein)
chain: SVLRYDDFHTDEDKLDTNSVYEPYYHSDHAESSWVNRGESSRKAYDHNSPYIWPRNDYDGFLENAHEHHGVYNQGRGIDSGERLMQPTQMSAQEDLGDDTGIHVIPTLNGDDRHKIVNVDQRQYGDVFKGDLNPKPQGQRLIEVSVEENHPFTLRAPIQRIYGVRYTETWSFLPSLTCTGDAAPAIQHICLKHTTCFQDVVVDVDCAENTKEDQLAEISYRFQGKKEADQPWIVVNTSTLFDELELDPPEIEPGVLKVLRTEKQYLGVYIWNMRGSDGTSTYATFLVTWKGDEKTRNPTPAVTPQPRGAEFHMWNYHSHVFSVGDTFSLAMHLQYKIHEAPFDLLLEWLYVPIDPTCQPMRLYSTCLYHPNAPQCLSHMNSGCTFTSPHLAQRVASTVYQNCEHADNYTAYCLGISHMEPSFGLILHDGGTTLKFVDTPESLSGLYVFVVYFNGHVEAVAYTVVSTVDHFVNAIEERGFPPTAGQPPATTKPKEITPVNPGTSPLLR
notes: glycoprotein E (gE) of Varicella-zoster virus; Methods are in the Supplementary Materials; also called gE protein
B2: Fab WLL-1 (Fab, V domains shown)
VH: QITLKESGPTLVKPTQTLTLTCTFSGFSLTNTEMTVGWIRRPPGKALEWLALIYWDDDKRYSPSLRSRLTITKDTSKNQVVLKMTNMDPVDTATYYCARLSLRLLTFDYWGQGTLVTVSS
VL: SYVVTQPPSVSVAPRQTARITCGGSNIGSKSVHWHQQKPGQAPVLVVYDDSDRPSGIPERFSGSNSGNTATLTITRVEAGDEADYYCQVWDSSGDHPLFGGGTKLTVL
B3: Fab WLL-28 (Fab, V domains shown)
VH: EVQLVQSGAEVKKPGEPLKISCKASGYNFANFWVGWVRQMPGRGLEWMGVIFPADSDTRYSPSFQGQVIISADKSTNTAYLQWSSLKASDSAMYYCARHVRGSLWGGGGYWGQGTLVTVSS
VL: EIVMTQSPSTLSVSPGEGATLSCRASQSVNNDLAWYQQKPGQAPRLLINGASTRATGIPARFTGSGSGTEFTLTISSLQPEDFAVYFCQQYNDWPRTFGQGTKVEIK

Key:
[1] = molecular target: T1, recombinant soluble insulin-degrading enzyme (rIDE, residues 42-1,019) (UniProt P14735 42-1019); assay: SPR; dissociation constant of gE to rIDE; settings: both partners purified
T1 construct: insulin-degrading enzyme (IDE), cellular receptor of VZV gE, residues 42-1,019; Tags and host are probably in the Supplementary Materials; also called rIDE receptor protein; source: recombinant, purified

[2] = molecular target: T2, Varicella-zoster virus glycoprotein E (gE), recombinant protein, tag not told for these experiments (Varicella-zoster virus, UniProt P09259); assay: cryo-EM structure; ternary complex Fab WLL-1/Fab WLL-28/gE, resolved at 3.36 Å; only the gI-binding domain of gE is seen; settings: both partners purified
T2 construct: glycoprotein E (gE) of Varicella-zoster virus; Methods are in the Supplementary Materials; also called gE protein

Row | Binder | Kd [1] | binding result [2]
1 | B1 | ~10 nM | 
2 | B2 |  | binds
3 | B3 |  | binds

From paper PMC12742838, “Discovery and structural investigation of Varicella-Zoster virus gE-neutralizing antibodies isolated from a convalescent patient” (Protein & Cell, 2025)
